First the molecules themselves.
B1: Nrf2_(1–100) (domain or fragment)
chain: MMDLELPPPGLPSQQDMDLIDILWRQDIDLGVSREVFDFSQRRKEYELEKQKKLEKERQEQLQKEQEKAFFAQLQLDEETGEFLPIQPAQHIQSETSGSA
B2: Nrf2_(34–100) E82A (domain or fragment)
chain: REVFDFSQRRKEYELEKQKKLEKERQEQLQKEQEKAFFAQLQLDEETGAFLPIQPAQHIQSETSGSA
B3: Nrf2_(34–100) E79A (domain or fragment)
chain: B2 chain with E46A, A49E
B4: Nrf2_(34–100) F83A (domain or fragment)
chain: B2 chain with A49E, F50A
B5: Nrf2_(34–100) T80S (domain or fragment)
chain: B2 chain with T47S, A49E
B6: Nrf2_(34–100) E78A (domain or fragment)
chain: B2 chain with E45A, A49E
B7: Nrf2_(34–100) wild type (domain or fragment)
chain: B2 chain with A49E
B8: Nrf2_(34–100) T80A (domain or fragment)
chain: B2 chain with T47A, A49E
B9: Nrf2_(34–100) D77A (domain or fragment)
chain: B2 chain with D44A, A49E

Data on nine molecules can be found in paper PMC8177486.

Residue numbers refer to the chain shown, from its start. Numbers in names are those of the source.

In this assay the target is KEAP1_(312–624), human KEAP1 Kelch repeat domain (human) (UniProt Q14145). In words: fluorescence polarisation. On the technique in general: Polarisation of emitted light reports the rotation of a fluorescent probe.
As to B1, the Kd – broadly, the equilibrium constant for the complex coming apart – was 10 nM.
The same measure, in the same setting: next, B2: 22000 nM; B3: 1700 nM; B4: 18 nM.
For B5, the KD ratio to wild type (KD^T80S/KD^WT) was determined as 30.
Consider B6, for which the Kd worked out at 25 nM.
As for B7, the equilibrium dissociation constant (Kd) was 10 nM.
On the same count and under the same terms, then B8, with 26000 nM.
The molecule B9 gave a Kd of 4400 nM.
